Results published in the DeepSol protein solubility set.

Assay: soluble on expression in E. coli; label from the status in PepcDB or PDB records
With “MAHHHHHHMAPVIPKSSNEGKDYSVASGSVDTPVLDQLVGYYVNIQSRKMYYKDFLRIEHQAVRWAFADIRKNSEALAHGLLQTGLRPGQRVLAIQPCNCETFVLQLACAKIGALLAVVPHHNISADKLRFYLNEFQPHHLIAREWIVVPEVKQGVLVERNMHFWDMIYNVIPELGLSYPGQRFQWVHSQEFFFLKKVVITDHNMNLLGVTPMRKMLVWGPFSYYEQRLRRLSALLHPDDPILALEDPHPALEDKLHITYSHRNCINAGFLFGNLMGLKAESRFGVMPNHHVDPVGAIVAPYAALTTGAVLVHIHSDMFTDDHAINGIEKLCVEEVVGMLGKKSDFDLLLRHAGNFDADQYEHLKWVVLFEDASEPTVGDEYLQKLAKELGLEDVFVFRGPLESAYMVMWRSLKRARWEMVPHVEAKVVGDRGTADARILAANTRGNLKLKGPHISAGYYNNAGLLTELVDERGFCSTSREAVMDERGQLTLHGTQLY” the “soluble on expression in E. coli” value was “not soluble”. For “MAHHHHHHMAQASGCELMDFVSVLPVPPQTERRRGVLRFVGSTDFAPGLWMGIELFGTIGRNDGSVMGKSYFSCPAGQGVFVRPELVVPYMSEGEGPSGTVRKGDEFLAVVEPLRADLTRMQEELQQREAALRDAREELRNVMALHDAKSVELEREREEKSRMIMLTMTACRNNVTATTQTDEDKAVEVKDLEIHRLQQQCADLRDLCELQEDEIHRQREHADDLAQIVENLRREHEEERVRMVEKIRSLEEEITQRQKATAEDSAKADVEDMHLHAFQQQQEKEALRILKERYEQLYAERESERHEQEAKWKRATAEYEEALTQQREYKNRLLNEIRQLQHEIKDMRHSRERERVLQVPLSTLERDEYESQIYGLQWELMGVHEEMFSKRYDHFLAPVSSWNLPADVMRALSEEIMSLERVLPFTTPEKCQQSRMVLFQMHPRDAEGGTIAAAPL”, the “soluble on expression in E. coli” value was “not soluble”. With “MAHHHHHHMARLKVLNVAEKPSVASSIAEILSKGRPNKIKSCSKYNPVFTFDYKIKNDIWYMYVTSVTGHLTDQKFDDRYKNWHNTDPQELFDAEITVYVEKDKKNIENNLKKYSKECNMLILWLDCDREGEHICFEVINACRITNRKLIIHRAQFSAVTEKDIIHAINNLKEPNKNLAYSVDVRREIDLRMGSIFTRFMTIRYIELVKHETSIISYGPCQFPTLGFVVNRYLDIKNFKNEYYWSIKMKYVYNNDEINPMDDENNYDDHDDEQMDSDSDESDSYYTNNDDSNNYSDETDDYYGD” the “soluble on expression in E. coli” value was “not soluble”. For “MAHHHHHHMASSALDEMKEQMLRRWKEDQKKIDDLRKKHGHEKLCDATIDAVYGGMRGITGLVYEPSLLDPAEGIRFRGLTILECQEMLPKAPGGKEPLPEAMFWLLMTGEVPTEEQVRGLNAELHRRADPEAIAAAQKAIAALPRNAHPMTAFSVGVLALQSYSKFAAAYAAGKSNKKTYWEYALEDSLDMLARTPAVVAMICNRETKGQVELAAPSNSDLDWAANFAKMMGYQDEEFWECMRLYLSVHADHEGGNVSAHTTTLVASALSDPYLAFSAGLNGLAGPLHGLANQEVLNYLLSMQERVKADGVNMHDEAALEKALSNYTWELLNSGQVVPGYGHAVLRKVDPRYTCLRNFCLRHKFDDDLFKLVNTIYLIMPGILKEHGKTKNPYPNVDAHSGVLLQHYGMTNQNCYPVLFGLSRQMGVLAGVVWDRLQGRPLERPKSITTEMLAKKYLCNSL”, the “soluble on expression in E. coli” value was “not soluble”. With “MAHHHHHHMAVSSARESVTDLLSGREDVRTVSSSTMAQESTTIKTGELGEDGGGDGVISDRSNVLARVFEELLDAEVSMNPAKLREASRAGIPSLYRSTVYRYLLGITFVDHSREMSLERMQEKDFEQLLTAFGRIVASDGTGQRPSVKGRIMQPLASPRLHDSETIPLITRDESQFANGYRCSDRSFSVGYAAWIKFRANLRYLPRFVGNPERRQRMECAWQALHVTSSGATPDEVENLFELALVFESVHGTARDIYFSTSSLYYLLTHHGNVLQNAQCLQRMCGTFLMLFRATNFDLYRHFVAESVTAVEWLPGMLKTLLAGRLHEEDLLRLWDVYLADALEYLGFPLHPYVCLAILEEMTEVLLECEKSGIIERLRHLPRIEAGSIIQKAISLKESVFSKDLL” the “soluble on expression in E. coli” value was “not soluble”. For “MAHHHHHHMCAKESCRAVNQGIRKECESCGTEKPQLLGWKCEGCSTINHAGVRKCKKCADASDKSKEFWMCAVCHENNRVDEIEDNSRCGFCGYDMAPHSVAEEEILRRATEKTVMLQQQQEHFDSVSYTEADEQFTNPLEGAEALDPSLRAIHPGSEAPITGRVLKLPAVAPFVAGGVPETRHSPLHQRRKVHPALQTVLEGATAPEGPPGFDWMCRDSSCGHINPGDEESCLKCGSHITPAEWEVPVMRVLEPPGTLALLLLQKPHSGLLDLQCVSGDDEHL”, the “soluble on expression in E. coli” value was “not soluble”. For “MAHHHHHHMCPPKNENERGTEGQPAKNTESADTLKRKLSELYAEEGCQYGENGQPEDTSHLVSSGSAGKKRETATEKRNPEEVREKENAHEKKEDNEVDQNGQTSTSKTNTKKHRSSTDEPPNRRKKKKRKKKFNDNGEVTKPSKQMIRINYLLQASFLMNELNPNISREYIKTMRKLSNKFLIKHDKKFKKLFCKKCNSVLIPSATCKVSVNPLNLRKKKKNKNEEVSSNLNGKLRDEFLVSYRCNYCQHDTKFVYENGLTAPRANGTEAV”, the “soluble on expression in E. coli” value was “soluble”. With “MAHHHHHHMCTTNLENLVVDSVTRTGNNNASNTFLGDVLLASNKESQNITQYHPGVSSKDQPDVCGDVRYSFADIADIIRGTDVWSKQSQQMLLQGYLEQTFGKIKDKFKGTEKYDSDSHHPQIL” the “soluble on expression in E. coli” value was “not soluble”. For “MAHHHHHHMDPKEFVQRFPKSALSAKLVLSLEITEQRDFVVSLIDDAVYCDSWEAYFDFAERNNVAITEDVALAAVQAVGLDPLSAPLWVRAAACCESVESRKSLYEFGLSVPLHGWQRLFEEYRRCTDGHEDDHVLSETECWCVSNVLTAEKWPDRYAKLDTDTEAENVRQAWLELFACMLAGLASTAIARDLQLRRMELAMRQMCTQLPGDDSCWYQLALFQLCILEDAEAARKTVACGIAAAGSSFALENIASVADGVVGVSDSSGTSSADVLSATKALMQQRRAAEELALDGVTKDRVRALRSVGKAAAQQGLGDWKIFSQWRCAEDMAAHDTKMAAKVLENGMICCSHSPADALLLGSEAAQYHLLQRHEREALGYAEQQIEQQAELHHRGKILASWNSLVRIENLLGLSFSKAAKRRAELFPQNRISTFMENCRVGDYLPCDKSTFQWARFVEDYQVDKASVEETPFHGIAPPRNEAVAVKRLQQVECETPDDSQWEPFVPPLSCLPSREEENPDDVTGVRELRGKLVYRVKMDARTAARCQREKATRQRSMTGEKAVERGGALGALVRRVRPVNLTVGQTKRLQSVSADWVVHVLTVSELDLERTLKERAERQESHDMSV”, the “soluble on expression in E. coli” value was “not soluble”. In the case of “MAHHHHHHMDPNAFLSSFDAIVTLSNTEGPRHNVLEPKFTAREQMQALRESVRNAYKESPSQTAMSQICRCYVFIGFNMLETDEETEGVSEICKAYTLTLFGSKKELLDDVVDIAAHPLEEILRNEVPFVTAEKEYAFVTEFMRVHNALGFYFSNRDVELRINDAKQVLIVAEKAYRAWNDWFHQSFPGHCLMKDIPVLENGTLDRASISPDALPIYIVRFEMDTAFTSTLFFLAQVYTACKMTALASRYCHHTLYHQLLNKMEFSKKDWATNALHLSAFYSSCFDYGKALHCLRAGEYIMPEENANEETLGIVAWAFGKFYLHRLHYYSEVRRNCAPRGHFPDEFEGWWVDFPLDIPPPQPLPAIETFEDARKCFKEANVWFNKALNYYVYDGCCTEHIDIKKDIAQLYAALIPFEENRDRIIAMHQRRIALIELFPSDLNFNAYPTLVRQLLFDLGGMHEEMLEVYIQQKNSPMEGEKPLSDKKINAFADKVQGFYRRFCDTWKEPQTNKIPETIDIDSRLPFFRSLMRLAHLQMKRFFKDPKEEYDNISASIVMFEKAIAFASSNPMNEEADAEVQLAREMATLLPVRQKDLWRVYHNAV”, the “soluble on expression in E. coli” value is reported as “not soluble”. With “MAHHHHHHMDQSRHKRTARHQYLGARTKITLKLQLTRIQHRGFHVHVHSRTTPLDRQAHEDALQQRDVECLLWRVKMQQIQQNRSGEGHVDKAQTTHTGIRIVHGADPATVNAAGLRVLRIGERERPKTVRNRSWQTRVTVAASSTHALTAADAARPRSEAHGVHSARATVQHRHGRPNIEVDSVIRHRRAS” the “soluble on expression in E. coli” value was “not soluble”. In the case of “MAHHHHHHMDTHALLALAQSAVDAGNVKAACEFYEVALAQSPNNDEVLEAYAEVMIHYAQDIPRAQQMLRHAIDINPNQGYVKYLNLAQLCEAEEALKCYEKAYEIASLMLHGCRKKKMKKTLQETMATMCCAVAELYLTDLCFAENAEQQCEQAVNRALELNSDLVEPHQLQASLRLSQCRPDEALQSLRRAVDATHRLGEEHQPTYESKIELGRLLMQVDPAEAFQFLLEVLQYGDNNPYVWFLLGESARMRRRYADAARLLRRARVMLVVSGGDATALSEVDAAINVLVQEMGGPEEAAQVKDLDHPYPLELLEAEDDEGAEEDGEDDLEEPEREPCDDEDDA”, the “soluble on expression in E. coli” value is reported as “not soluble”. With “MAHHHHHHMDYEEPGQATRELTTFVQGLLQNMQTRFQEMSDTIITRIDEMGTRIDDLEKNIAELMQQAGPDEEAAQTASAPKDKKKSKGK” the “soluble on expression in E. coli” value was “soluble”. In the case of “MAHHHHHHMEAVFYAFASFGTAPTKEMDNAHFSKMLKEAKIIGKTFTSTDADLLFNKIKAKGARKITFTEFNTRALPDIATKLKMTPEQVAEILTKASPASNSTKAEAVKFHDDKNLYTGVYKAGGPTNVDRNAGSLSGVVDRRVDQVDVRGTTSSQK”, the “soluble on expression in E. coli” value is reported as “soluble”. For “MAHHHHHHMEDEKVGTANNDEKVTMSMPEEYMPKNISEILIGAVEEDRTYALKGDEPCDSYIKLGEIVHGTNEKTTQFTFPKNKVLCVQLEAINGNGYLWALLGVHKEKPQINPEEFPRKKITKSFFTNEISVTQPKAIQKNTSNNGGDISPNSSGYGKPRGSEHLGGFVGGASTLQSMVKAHKAGTFYIVYSYYRPFDPTASANTKILQLTVS”, the “soluble on expression in E. coli” value was “soluble”. With “MAHHHHHHMEDTINVFGRGTPAGEAIYRCYVAPSKPSTLDPQLAALLARRRQEREAAEAAQAHPKPIPKSKAPVHRPRVGMGKRPTEEEYARWRLQHIPHRRSKAAIEAEEEAHRWVPPPVSERFARPAITDAEKDRLADVMAYGAELPKPKEFTGVQRARFHRLEPRAELEDRFTKLRQTAQEVQSELAQLRQSAPGAGASLPSGGRVVESVSDPQARLSQRRSCGGGGDPATASPCPLASAASPGAAAARDVLSIGGTRVGRQGDSKMSTIERCRQERELQSHLGTVIAEMEAVDRELNRLPISS” the “soluble on expression in E. coli” value was “soluble”. In the case of “MAHHHHHHMEEGDQATDAAETSALAANTLTREEQPDERSKNEVTLLEIKRKVQNEKEAQKDDNKQRKFKIINYTSKDSLVSKVEKEFFLFFCFLCGFNCLISETDVADLPRRKTDGSIIFPFKKIVHKKYYKTKKECILIRRREDALEVQFRILCKECGVPIGYVNSLADDNAYVYYYDYSFVRSQTKSRLFKDVSL”, the “soluble on expression in E. coli” value is reported as “not soluble”. In the case of “MAHHHHHHMEEGGRYAACKAELYKLQEKIKTQETPRDNCAEKEKMWEKQRSELEQEKDECLRTSDAHRTQKQDLEDRVRYMDGLTRAMISEKRFAEERRNISEKENEDLKTRVRVLTHKLGVLTAMVQKLHISHMIKDMGIAMLQAEAKQAAEEMETNHKKDVAAAEERVLQECKEKFCFDSSGNLNAAVFIEHNISKENRSFLLEQLNCSKENQGDTKREWRFWRKGANDSSRPKKSADHSESNGSSHGNNIHLVLRVCLSLLLLTALS”, the “soluble on expression in E. coli” value is reported as “not soluble”. With “MAHHHHHHMEEQESAENINMIKETIFGLPNSVILKIIHNNINLKNYKIRKEAVTTLGRCLSMFILYITDGALEHCEGEKRNTIFVRDILNSLDDSLFLDIYDELKRQIAIQEEIHKKESAKEAKSAAKGDTPSGADNAQGETNQVNKQDDLDILLQALE” the “soluble on expression in E. coli” value was “soluble”.
